The results in this text go back to patent US20260015399A1 (Boehringer Ingelheim, published 2026).

This assay concerns the target T1, human NPY2 receptor (human, UniProt P49146 1-381).
T1 construct: whole, on cells; also called hNPY2-R; hNPY2R
T1 sequence (looked up): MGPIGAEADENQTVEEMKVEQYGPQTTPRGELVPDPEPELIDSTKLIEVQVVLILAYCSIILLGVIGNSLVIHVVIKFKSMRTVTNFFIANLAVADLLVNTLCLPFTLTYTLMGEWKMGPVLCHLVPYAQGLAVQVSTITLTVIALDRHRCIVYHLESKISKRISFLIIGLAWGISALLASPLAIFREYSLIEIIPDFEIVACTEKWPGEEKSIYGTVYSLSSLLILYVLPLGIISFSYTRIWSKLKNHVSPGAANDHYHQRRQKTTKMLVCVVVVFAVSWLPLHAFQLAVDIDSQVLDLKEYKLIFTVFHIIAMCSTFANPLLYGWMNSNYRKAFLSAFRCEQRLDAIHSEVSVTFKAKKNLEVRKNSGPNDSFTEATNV
In words: RLB: displacement of 125I-PYY(1-36) from hNPY2R membranes. A general note: In a radioligand displacement assay an active substance lowers the binding of a labelled ligand.

*1 amine or outer side, *2 acyl side, *3 side chain or, on linkers, in order; H or OH if unused. Side-chain parts run from the residue outwards. The star is where a group is joined. C18 diacid = O=C(O)CCCCCCCCCCCCCCCCC(=O)*; γGlu = O=C(O)[C@H](CCC(=O)[*:2])N[*:1]; Isovaleryl = CC(C)CC(=O)*; Ahx = NCCCCCC(=O)O

B1: Compound 44 (peptide)
peptide: Isovaleryl-APEK([Ahx-γGlu-C18 diacid])PEEDATPEELQRYYVGLRHYYNWLTRQRY-NH2
SMILES: CC(C)CC(=O)N[C@@H](C)C(=O)N1CCC[C@H]1C(=O)N[C@@H](CCC(=O)O)C(=O)N[C@@H](CCCCNC(=O)CCCCCNC(=O)CC[C@H](NC(=O)CCCCCCCCCCCCCCCCC(=O)O)C(=O)O)C(=O)N1CCC[C@H]1C(=O)N[C@@H](CCC(=O)O)C(=O)N[C@@H](CCC(=O)O)C(=O)N[C@@H](CC(=O)O)C(=O)N[C@@H](C)C(=O)N[C@H](C(=O)N1CCC[C@H]1C(=O)N[C@@H](CCC(=O)O)C(=O)N[C@@H](CCC(=O)O)C(=O)N[C@@H](CC(C)C)C(=O)N[C@@H](CCC(N)=O)C(=O)N[C@@H](CCCNC(=N)N)C(=O)N[C@@H](Cc1ccc(O)cc1)C(=O)N[C@@H](Cc1ccc(O)cc1)C(=O)N[C@H](C(=O)NCC(=O)N[C@@H](CC(C)C)C(=O)N[C@@H](CCCNC(=N)N)C(=O)N[C@@H](Cc1c[nH]cn1)C(=O)N[C@@H](Cc1ccc(O)cc1)C(=O)N[C@@H](Cc1ccc(O)cc1)C(=O)N[C@@H](CC(N)=O)C(=O)N[C@@H](Cc1c[nH]c2ccccc12)C(=O)N[C@@H](CC(C)C)C(=O)N[C@H](C(=O)N[C@@H](CCCNC(=N)N)C(=O)N[C@@H](CCC(N)=O)C(=O)N[C@@H](CCCNC(=N)N)C(=O)N[C@@H](Cc1ccc(O)cc1)C(N)=O)[C@@H](C)O)C(C)C)[C@@H](C)O
For the molecule B1, the affinity, expressed as Ki, was 5.86 nM.

B2: Compound 45 (peptide)
peptide: Isovaleryl-APEK([Ahx-γGlu-C18 diacid])PEEIATPEELQRYYVSLRHYYNWLTRQRY-NH2
SMILES: CC[C@H](C)[C@H](NC(=O)[C@H](CCC(=O)O)NC(=O)[C@H](CCC(=O)O)NC(=O)[C@@H]1CCCN1C(=O)[C@H](CCCCNC(=O)CCCCCNC(=O)CC[C@H](NC(=O)CCCCCCCCCCCCCCCCC(=O)O)C(=O)O)NC(=O)[C@H](CCC(=O)O)NC(=O)[C@@H]1CCCN1C(=O)[C@H](C)NC(=O)CC(C)C)C(=O)N[C@@H](C)C(=O)N[C@H](C(=O)N1CCC[C@H]1C(=O)N[C@@H](CCC(=O)O)C(=O)N[C@@H](CCC(=O)O)C(=O)N[C@@H](CC(C)C)C(=O)N[C@@H](CCC(N)=O)C(=O)N[C@@H](CCCNC(=N)N)C(=O)N[C@@H](Cc1ccc(O)cc1)C(=O)N[C@@H](Cc1ccc(O)cc1)C(=O)N[C@H](C(=O)N[C@@H](CO)C(=O)N[C@@H](CC(C)C)C(=O)N[C@@H](CCCNC(=N)N)C(=O)N[C@@H](Cc1c[nH]cn1)C(=O)N[C@@H](Cc1ccc(O)cc1)C(=O)N[C@@H](Cc1ccc(O)cc1)C(=O)N[C@@H](CC(N)=O)C(=O)N[C@@H](Cc1c[nH]c2ccccc12)C(=O)N[C@@H](CC(C)C)C(=O)N[C@H](C(=O)N[C@@H](CCCNC(=N)N)C(=O)N[C@@H](CCC(N)=O)C(=O)N[C@@H](CCCNC(=N)N)C(=O)N[C@@H](Cc1ccc(O)cc1)C(N)=O)[C@@H](C)O)C(C)C)[C@@H](C)O
Take B2: the Ki (as a rule, the equilibrium dissociation constant of an inhibitor or competing ligand from its target) came out at 6.17 nM.
